IntAct's records for PubMed 20974977

B1: Interleukin-27 subunit alpha (Homo sapiens), Q8NEV9 (parent)
chain: MGQTAGDLGWRLSLLLLPLLLVQAGVWGFPRPPGRPQLSLQELRREFTVSLHLARKLLSEVRGQAHRFAESHLPGVNLYLLPLGEQLPDVSLTFQAWRRLSDPERLCFISTTLQPFHALLGGLGTQGRWTNMERMQLWAMRLDLRDLQRHLRFQVLAAGFNLPEEEEEEEEEEEEERKGLLPGALGSALQGPAQVSWPQLLSTYRLLHSLELVLSRAVRELLLLSKAGHSVWPLGFPTLSPQP
partner: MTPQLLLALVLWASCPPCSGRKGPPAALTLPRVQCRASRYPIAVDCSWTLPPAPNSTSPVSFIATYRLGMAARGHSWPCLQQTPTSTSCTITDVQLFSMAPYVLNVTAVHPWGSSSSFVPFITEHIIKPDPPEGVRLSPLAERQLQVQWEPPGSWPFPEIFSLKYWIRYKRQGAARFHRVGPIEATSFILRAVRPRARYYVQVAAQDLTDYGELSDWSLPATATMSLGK
B2: Interleukin-27 subunit beta (Homo sapiens), Q14213 (parent)
chain: B1 partner
partner: B1 chain

Variants of: B1
Details: with il27b_human EBI3, Q14213

| effect of a mutation on the interaction | Variant |
| --- | --- |
| disrupting interaction | MGQTAGDLGWRLSLLLLPLLLVQAGVWGFPRPPGRPQLSLQELRREFTVSLHLARKLLSEVRGQAHRFAESHLPGVNLYLLPLGEQLPDVSLTFQAARRLSDPERLCFISTTLQPFHALLGGLGTQGRWTNMERMQLWAMRLDLRDLQRHLRFQVLAAGFNLPEEEEEEEEEEEEERKGLLPGALGSALQGPAQVSWPQLLSTYRLLHSLELVLSRAVRELLLLSKAGHSVWPLGFPTLSPQP [W97A] |
| increasing interaction | MGQTAGDLGWRLSLLLLPLLLVQAGVWGFPRPPGRPQLSLQELRREFTVSLHLARKLLSEVRGQAHRFAESHLPGVNLYLLPLGEQLPDVSLTFQAWRRLSDPERLCFISTTLQPFHALLGGLGTQGRWTNMERMQLWAMRLDLRDLQRHLRFQVLAAGFNLPEEEEEEEEEEEEERKGLLPGALGSALQGPAQVSAPQLLSTYRLLHSLELVLSRAVRELLLLSKAGHSVWPLGFPTLSPQP [W197A] |

Variants of: B2
Details: with il27a_human IL27, Q8NEV9

| effect of a mutation on the interaction | Variant |
| --- | --- |
| decreasing interaction | MTPQLLLALVLWASCPPCSGRKGPPAALTLPRVQCRASRYPIAVDCSWTLPPAPNSTSPVSFIATYRLGMAARGHSWPCLQQTPTSTSCTITDVQLFSMAPYVLNVTAVHPWGSSSSFVPFITEHIIKPDPPEGVRLSPLAERQLQVQWEPPGSWPFPAIFSLKYWIRYKRQGAARFHRVGPIEATSFILRAVRPRARYYVQVAAQDLTDYGELSDWSLPATATMSLGK [E159A] |
| decreasing interaction | MTPQLLLALVLWASCPPCSGRKGPPAALTLPRVQCRASRYPIAVDCSWTLPPAPNSTSPVSFIATYRLGMAARGHSWPCLQQTPTSTSCTITDVQLASMAPYVLNVTAVHPWGSSSSFVPFITEHIIKPDPPEGVRLSPLAERQLQVQWEPPGSWPFPEIFSLKYWIRYKRQGAARFHRVGPIEATSFILRAVRPRARYYVQVAAQDLTDYGELSDWSLPATATMSLGK [F97A] |
| disrupting interaction | MTPQLLLALVLWASCPPCSGRKGPPAALTLPRVQCRASRYPIAVDCSWTLPPAPNSTSPVSFIATYRLGMAARGHSWPCLQQTPTSTSCTITDVQLFSMAPYVLNVTAVHPWGSSSSFVPFITEHIIKPDPPEGVRLSPLAERQLQVQWEPPGSWPFPEIFSLKYWIRYKRQGAARFHRVGPIEATSFILRAVRPRARYYVQVAAQDLTAYGELSDWSLPATATMSLGK [D210A] |
